B1: human VZV neutralizing mAb 93k [modified: Cy5-conjugated] [human] / VZV glycoprotein B, wild type [varicella-zoster virus (VZV)] (parent complex)
chain 1: QVQLVQSGAEVKKPGSSVKVSCKASGGTFSNFAISWVRQAPGQGLEWMGRIMPLFVTSTYAQKFQGRVTISADASTSTAYMELSSLRSDDTAMYYCARDITAPGAAPTPLNFYGMDVWGQGTTVTVSS
chain 2: DIQMTQSPSTLSASVGDRVTITCRASQTISTWLAWYQQTPRKAPKLMIYKASILENGVPSRFSGSGSGTEFTLTISSLQPEDFATYYCQQYKSYPWTFGQGTKVEI
chain 3: VSPSSFYESLQVEPTQSEDITRSAHLGDGDEIREAIHKSQDAETKPTFYVCPPPTGSTIVRLEPTRTCPDYHLGKNFTEGIAVVYKENIAAYKFKATVYYKDVIVSTAWAGSSYTQITNRYADRVPIPVSEITDTIDKFGKCSSKATYVRNNHKVEAFNEDKNPQDMPLIASKYNSVGSKAWHTTNDTYMVAGTPGTYRTGTSVNCIIEEVEARSIFPYDSFGLSTGDIIYMSPFFGLRDGAYREHSNYAMDRFHQFEGYRQRDLDTRALLEPAARNFLVTPHLTVGWNWKPKRTEVCSLVKWREVEDVVRDEYAHNFRFTMKTLSTTFISETNEFNLNQIHLSQCVKEEARAIINRIYTTRYNSSHVRTGDIQTYLARGGFVVVFQPLLSNSLARLYLQELVRENTNHSPQKHPTRNTRSRRSVPVELRANRTITTTSSVEFAMLQFTYDHIQEHVNEMLARISSSWCQLQNRERALWSGLFPINPSALASTILDQRVKARILGDVISVSNCPELGSDTRIILQNSMRVSGSTTRCYSRPLISIVSLNGSGTVEGQLGTDNELIMSRDLLEPCVANHKRYFLFGHHYVYYEDYRYVREIAVHDVGMISTYVDLNLTLLKDREFMPLQVYTRDELRDTGLLDYSEIQRRNQMHSLRFYDIDKVVQYDSGTAIMQGMAQFFQGLGTAGQAVGHVVLGATGALLSTVHGFTTFLSNPFGALAVGLLVLAGLVAAFFAYRYVLKLKTSPMKALYPLTTKGLKQLPEGMDPFAEKPNATDTPIEEIGDSQNTEPSVNSGFDPDKFREAQEMIKYMTLVSAAERQESKARKKNKTSALLTSRLTGLALRNRRGYSRVRTENVTGV

Variants of B1 are the subject of the first assay. As to the kind of experiment: flow cytometry on cells; CHO-DSP1 cells transfected, permeabilized, immunostained with Cy5-conjugated mAb 93k; n = 3; parent: 100; read off a plot.
Consider chain 3 V457P, for which the screen value was about 48 % WT.

chain 3 E455P: the screen value was about 110 % WT.

In the case of chain 3 H456P, the screen value is about 120 % WT.

In another assay the parent is B1. The description is as above. This is another data set of the same source.
Consider chain 3 V457P, for which the percent of parent was about 18 % WT.

For the variant chain 3 E455P, the percent of parent was about 70 % WT.

On to chain 3 H456P, for which the percent of parent was about 95 % WT.

Variants of B1 are the subject of a further assay. Nature of the assay: flow cytometry on cells; CHO-DSP1 cells transfected, permeabilized, immunostained with Cy5-conjugated mAb 93k; n = 2; parent: 100; read off a plot. In general terms: In flow cytometry, cells or beads pass a laser one at a time.
Consider chain 3 V457A, for which the percent of parent is about 98 % WT.

Consider chain 3 E455A, for which the percent of parent is about 110 % WT.

Regarding chain 3 H456A, the percent of parent was about 98 % WT.

Variants of B1 are the subject of another assay. The assay is described as above. The source holds these as a separate data set.
chain 3 V457A: the screen value is about 120 % WT.

On to chain 3 E455A, for which the screen value is about 120 % WT.

As for chain 3 H456A, the screen value is about 120 % WT.

For the origin of these results see paper PMC10693595 (2023).
